Results taken from patent US6710026B1, “Protein domains in the hepatic glycogen-targetting subunit of protein phosphatase 1 and methods of making and using the same” (Medical Research Counsel, priority 1998, dated 2004).
Where no end group is shown, it is not given here.

T1: phosphorylase a (Oryctolagus cuniculus, UniProt P00489)
T1 sequence (P00489 2-843 limits assumed): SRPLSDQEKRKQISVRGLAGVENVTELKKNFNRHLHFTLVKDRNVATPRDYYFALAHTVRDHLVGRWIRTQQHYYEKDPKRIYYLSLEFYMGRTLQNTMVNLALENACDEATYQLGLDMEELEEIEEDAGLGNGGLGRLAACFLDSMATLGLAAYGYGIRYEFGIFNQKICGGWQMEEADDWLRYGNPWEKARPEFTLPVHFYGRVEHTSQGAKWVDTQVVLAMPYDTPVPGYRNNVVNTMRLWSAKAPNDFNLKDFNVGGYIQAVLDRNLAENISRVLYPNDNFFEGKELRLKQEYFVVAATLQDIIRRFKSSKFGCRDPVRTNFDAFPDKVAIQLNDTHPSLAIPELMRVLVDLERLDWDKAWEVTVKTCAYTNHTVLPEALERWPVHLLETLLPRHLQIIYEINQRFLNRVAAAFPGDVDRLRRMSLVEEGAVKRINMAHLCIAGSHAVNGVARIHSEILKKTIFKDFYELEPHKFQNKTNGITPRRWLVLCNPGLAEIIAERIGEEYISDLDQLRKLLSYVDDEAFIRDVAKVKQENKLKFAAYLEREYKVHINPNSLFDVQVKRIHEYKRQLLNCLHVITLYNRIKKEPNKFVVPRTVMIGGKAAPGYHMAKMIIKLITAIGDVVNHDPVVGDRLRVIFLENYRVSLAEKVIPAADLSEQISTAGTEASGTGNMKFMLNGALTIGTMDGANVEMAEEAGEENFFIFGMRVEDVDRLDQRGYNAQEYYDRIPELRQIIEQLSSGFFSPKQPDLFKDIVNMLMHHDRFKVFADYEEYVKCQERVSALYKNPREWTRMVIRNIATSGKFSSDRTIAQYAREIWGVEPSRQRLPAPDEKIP


molecular target: T1, phosphorylase a; assay: Blot overlay binding of 32P-labelled phosphorylase a to GST-GL fusion proteins; details: 100 nM 32P-phosphorylase a, fusion proteins on nitrocellulose membranes
Description: (§1) GST-GL fusion proteins were separated on SDS-PAGE and transferred to nitrocellulose membranes. They were probed with digoxigenin-PP1γ. Alternatively they were examined for binding of ^32P-labelled phosphorylase a. Non-specific binding to the membranes was blocked by incubation in 5% (w/v) marvel dried milk powder, 25 mM Tris/HCI pH 7.5, 500 mM NaCl for 16 hours. The samples were then probed for 3 h with ^32P-labelled phosphorylase a (100 nM) in 25 mM Tris/HCl pH 7.5, 250 mM NaCl, 1 mg/ml bovine serum albumin. The membranes were subsequently washed (3×30 min) with 25 mM Tris/HCl pH 7.5 before autoradiography.

Molecule | binding of 32P-labelled phosphorylase a
GST-GL(257-284): GST fused to GL residues 257-284 ({GST}-QFGSPRCSFGLFPEWPSYLGYEKLGPYY) | found to bind
GST-GL(269-284): GST fused to GL residues 269-284, the C-terminal 16 amino acids ({GST}-PEWPSYLGYEKLGPYY) | found to bind
GST-GL(216-284): GST fused to GL residues 216-284 (protein) {GST}-NGQSYWDSNKGKNYRITRAELRSTQGMTEPYNGPDFGISFDQFGSPRCSFGLFPEWPSYLGYEKLGPYY | found to bind
GST-GL(1-216): GST fused to GL residues 1-216 (protein, left off: a dimerising Fc or GST) MAVDIEYSYSSMAPSLRRERFTFKISPKLNKPLRPCIQLGSKDEAGRMVAPTVQEKKVKKRVSFADNQGLALTMVKVFSEFDDPLDIPFNITELLDNIVSLTTAESESFVLDFPQPSADYLDFRNRLQTNHVCLENCVLKEKAIAGTVKVQNLAFEKVVKIRMTFDTWKSFTDFPCQYVKDTYAGSDRDTFSFDISLPEKIQSYERMEFAVCYECN | not
GST-GL(1-257): GST fused to GL residues 1-257 (protein, left off: a dimerising Fc or GST) MAVDIEYSYSSMAPSLRRERFTFKISPKLNKPLRPCIQLGSKDEAGRMVAPTVQEKKVKKRVSFADNQGLALTMVKVFSEFDDPLDIPFNITELLDNIVSLTTAESESFVLDFPQPSADYLDFRNRLQTNHVCLENCVLKEKAIAGTVKVQNLAFEKVVKIRMTFDTWKSFTDFPCQYVKDTYAGSDRDTFSFDISLPEKIQSYERMEFAVCYECNGQSYWDSNKGKNYRITRAELRSTQGMTEPYNGPDFGISFDQ | not
GST-GL(1-271): GST fused to GL residues 1-271 (protein, left off: a dimerising Fc or GST) MAVDIEYSYSSMAPSLRRERFTFKISPKLNKPLRPCIQLGSKDEAGRMVAPTVQEKKVKKRVSFADNQGLALTMVKVFSEFDDPLDIPFNITELLDNIVSLTTAESESFVLDFPQPSADYLDFRNRLQTNHVCLENCVLKEKAIAGTVKVQNLAFEKVVKIRMTFDTWKSFTDFPCQYVKDTYAGSDRDTFSFDISLPEKIQSYERMEFAVCYECNGQSYWDSNKGKNYRITRAELRSTQGMTEPYNGPDFGISFDQFGSPRCSFGLFPEW | not

molecular target: PP1γ (Homo sapiens, UniProt P36873); assay: Blot overlay binding of digoxigenin-labelled PP1γ to GST-GL fusion proteins; details: fusion proteins on nitrocellulose membranes
Sequence (P36873 whole entry, the tested form may be a part): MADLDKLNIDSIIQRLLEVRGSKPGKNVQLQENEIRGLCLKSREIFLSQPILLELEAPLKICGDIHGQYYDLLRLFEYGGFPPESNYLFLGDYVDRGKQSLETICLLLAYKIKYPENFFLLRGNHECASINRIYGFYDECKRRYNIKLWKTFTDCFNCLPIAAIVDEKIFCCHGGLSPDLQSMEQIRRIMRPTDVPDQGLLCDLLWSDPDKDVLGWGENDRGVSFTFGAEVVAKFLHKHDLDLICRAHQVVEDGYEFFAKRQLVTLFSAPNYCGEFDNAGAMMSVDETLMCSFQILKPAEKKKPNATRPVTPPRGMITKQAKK
Description: as §1

Molecule | binding of digoxigenin-labelled PP1γ
GST-GL(1-59): GST fused to GL residues 1-59 ({GST}-MAVDIEYSYSSMAPSLRRERFTFKISPKLNKPLRPCIQLGSKDEAGRMVAPTVQEKKVK) | not
GST-GL(1-94): GST fused to GL residues 1-94 (protein, left off: a dimerising Fc or GST) MAVDIEYSYSSMAPSLRRERFTFKISPKLNKPLRPCIQLGSKDEAGRMVAPTVQEKKVKKRVSFADNQGLALTMVKVFSEFDDPLDIPFNITEL | binds
GST-GL(59-284): GST fused to GL residues 59-284 (protein, left off: a dimerising Fc or GST) KKRVSFADNQGLALTMVKVFSEFDDPLDIPFNITELLDNIVSLTTAESESFVLDFPQPSADYLDFRNRLQTNHVCLENCVLKEKAIAGTVKVQNLAFEKVVKIRMTFDTWKSFTDFPCQYVKDTYAGSDRDTFSFDISLPEKIQSYERMEFAVCYECNGQSYWDSNKGKNYRITRAELRSTQGMTEPYNGPDFGISFDQFGSPRCSFGLFPEWPSYLGYEKLGPYY | binds
